From patent publication US20210388087A1 (Chugai, published 2021) come the findings set out here.

The target of the experiment is T1, CD3 epsilon homodimer protein (UniProt P07766 23-126).
T1 construct: immobilized on Sensor chip CM4 by amine coupling; also called CD3 (CD3 epsilon)
Nature of the experiment: SPR (Biacore T200), CD3 epsilon homodimer on CM4 chip, one-arm antibody as analyte, 25 C.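 Further: homodimer attached to the sensor surface via amine coupling, HBS-EP+ used as running buffer during binding runs.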

T1 sequence (P07766 23-126): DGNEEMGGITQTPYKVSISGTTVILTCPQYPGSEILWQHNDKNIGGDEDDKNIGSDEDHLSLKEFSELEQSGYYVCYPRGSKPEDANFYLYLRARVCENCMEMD

B1: CE115HA000 Y58N one-arm antibody (antibody, human IgG1, kappa, L234A L235A, N297A, name in Kabat numbering)
heavy: QVQLVESGGGVVQPGRSLRLSCAASGFTFSNAWMHWVRQAPGKGLEWVAQIKAKSNNYATNYAESVKGRFTISRDDSKNSLYLQMNSLKTEDTAVYYCRYVHYGAYYGVDAWGQGTTVTVSSASTKGPSVFPLAPSSKSTSGGTAALGCLVKDYFPEPVTVSWNSGALTSGVHTFPAVLQSSGLYSLSSVVTVPSSSLGTQTYICNVNHKPSNTKVDKKVEPKSCDKTHTCPPCPAPEAAGGPSVFLFPPKPKDTLMISRTPEVTCVVVDVSHEDPEVKFNWYVDGVEVHNAKTKPREEQYASTYRVVSVLTVLHQDWLNGKEYKCKVSNKALPAPIEKTISKAKGQPREPQVYTLPPSRCELTKNQVSLSCAVKGFYPSDIAVEWESNGQPENNYKTTPPVLDSDGSFFLVSKLTVDKSRWQQGNVFSCSVMHEALHNHYTQKSLSLSPDYKDDDDK
chain: EPKSSDKTHTCPPCPAPELLGGPSVFLFPPKPKDTLMISRTPEVTCVVVDVSHEDPEVKFNWYVDGVEVHNAKTKPREEQYNSTYRVVSVLTVLHQDWLNGKEYKCKVSNKALPAPIEKTISKAKGQPREPQVCTLPPSRDELTKNQVSLWCLVKGFYPSDIAVEWESNGQPENNYKTTPPVLDSDGSFFLYSKLTVDKSRWQQGNVFSCSVMHEALHNRYTQKSLSLSP
light: DIVMTQSPLSLPVTPGEPASISCRSSQSLVHSNRNTYLHWYQQKPGQAPRLLIYKVSNRFSGVPDRFSGSGSGTDFTLKISRVEAEDVGVYYCGQGTQVPYTFGQGTKLEIKRTVAAPSVFIFPPSDEQLKSGTASVVCLLNNFYPREAKVQWKVDNALQSGNSQESVTEQDSKDSTYSLSSTLTLSKADYEKHKVYACEVTHQGLSSPVTKSFNRGEC
Take B1: the “ratio of amounts bound (altered form / CE115HA000)” value is 0.33.

B2: CE115HA000 Y58Q one-arm antibody (antibody, human IgG1, kappa, L234A L235A, N297A, name in Kabat numbering)
heavy: QVQLVESGGGVVQPGRSLRLSCAASGFTFSNAWMHWVRQAPGKGLEWVAQIKAKSNNYATQYAESVKGRFTISRDDSKNSLYLQMNSLKTEDTAVYYCRYVHYGAYYGVDAWGQGTTVTVSSASTKGPSVFPLAPSSKSTSGGTAALGCLVKDYFPEPVTVSWNSGALTSGVHTFPAVLQSSGLYSLSSVVTVPSSSLGTQTYICNVNHKPSNTKVDKKVEPKSCDKTHTCPPCPAPEAAGGPSVFLFPPKPKDTLMISRTPEVTCVVVDVSHEDPEVKFNWYVDGVEVHNAKTKPREEQYASTYRVVSVLTVLHQDWLNGKEYKCKVSNKALPAPIEKTISKAKGQPREPQVYTLPPSRCELTKNQVSLSCAVKGFYPSDIAVEWESNGQPENNYKTTPPVLDSDGSFFLVSKLTVDKSRWQQGNVFSCSVMHEALHNHYTQKSLSLSPDYKDDDDK
chain: EPKSSDKTHTCPPCPAPELLGGPSVFLFPPKPKDTLMISRTPEVTCVVVDVSHEDPEVKFNWYVDGVEVHNAKTKPREEQYNSTYRVVSVLTVLHQDWLNGKEYKCKVSNKALPAPIEKTISKAKGQPREPQVCTLPPSRDELTKNQVSLWCLVKGFYPSDIAVEWESNGQPENNYKTTPPVLDSDGSFFLYSKLTVDKSRWQQGNVFSCSVMHEALHNRYTQKSLSLSP
light: DIVMTQSPLSLPVTPGEPASISCRSSQSLVHSNRNTYLHWYQQKPGQAPRLLIYKVSNRFSGVPDRFSGSGSGTDFTLKISRVEAEDVGVYYCGQGTQVPYTFGQGTKLEIKRTVAAPSVFIFPPSDEQLKSGTASVVCLLNNFYPREAKVQWKVDNALQSGNSQESVTEQDSKDSTYSLSSTLTLSKADYEKHKVYACEVTHQGLSSPVTKSFNRGEC
As to B2, the “ratio of amounts bound (altered form / CE115HA000)” value is 0.19.
